Assay results from patent US20260077041A1.

Columns and labels:
[1] = target: IL-17A (human) (UniProt Q16552); experiment: SPR (Biacore T200), drug captured on protein A chip, IL-17A as analyte, multi-cycle
[2] = target: TNFα (human) (UniProt P01375); experiment: SPR (Biacore T200), drug captured on protein A chip, TNFα as analyte, multi-cycle
TNFα (human), sequence (P01375 77-233 limits assumed): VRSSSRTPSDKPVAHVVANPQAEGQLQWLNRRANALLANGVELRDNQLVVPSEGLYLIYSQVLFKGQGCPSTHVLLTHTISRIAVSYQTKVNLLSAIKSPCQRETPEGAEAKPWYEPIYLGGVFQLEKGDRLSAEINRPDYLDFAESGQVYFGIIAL

IL-17A (human), sequence (Q16552 24-155 limits assumed): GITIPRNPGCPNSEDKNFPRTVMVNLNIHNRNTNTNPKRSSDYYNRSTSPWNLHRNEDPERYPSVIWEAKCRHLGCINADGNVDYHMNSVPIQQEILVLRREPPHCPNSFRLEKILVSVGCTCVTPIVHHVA

Row | Substance | Kd [1] | koff [1] | kon [1] | Kd [2] | koff [2] | kon [2]
1 | Cosentyx (antibody) | 78.7 pM | 6.12e-05 s⁻¹ | 778000 M⁻¹ s⁻¹ |  |  | 
2 | Humira (antibody) |  |  |  | 160 pM | 0.00015 s⁻¹ | 941000 M⁻¹ s⁻¹
